Binding Signal (fold over 6E7 parental antibody) data for 18 molecules are collected here from patent US20250019437A1.

For assay [1], the target named is T1, human TREM2 (triggering receptor expressed on myeloid cells 2) (human) (UniProt Q9NZC2).
T1 sequence (looked up): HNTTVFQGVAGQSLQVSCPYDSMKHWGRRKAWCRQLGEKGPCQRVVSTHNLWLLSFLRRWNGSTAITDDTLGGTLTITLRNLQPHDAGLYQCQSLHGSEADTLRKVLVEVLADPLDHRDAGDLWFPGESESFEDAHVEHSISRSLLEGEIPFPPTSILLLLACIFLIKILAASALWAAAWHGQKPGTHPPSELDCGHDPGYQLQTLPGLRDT
As to the kind of experiment: 1st screen, 110 nM Ab.

Assay [2] deals with T1, human TREM2 (triggering receptor expressed on myeloid cells 2) (human). As to the kind of experiment: 2nd screen, 100 nM Ab.

B1: 6E7 antibody affinity modulation variant V34 (antibody, V domains shown)
VH: EVQLVQSGAEVKKPGESLKISCKGSGYSFTSYWIAWVRQMPGKGLEWMGIIYPGDSDTRYSPSFQGQVTISADKSISTAYLQWSSLKASDTAMYFCARQRTFYYDSSDYFDYWGQGTLVTVSS
VL: DIQMTQSPSSVSASVGDRVTITCRASQGISSWLAWYQQKPGKAPKLLIYAASSLQDGVPSRFSGSGSGTDFTLTISSLQPEDFATYFCQQADSFPRTFGQGTKLEIK
As to B1, the Binding Signal (fold over 6E7 parental antibody) in assay [1] amounted to 0.34 fold; in assay [2] it was 1.02 fold.

B2: 6E7 antibody affinity modulation variant V54 (antibody, V domains shown)
VH: EVQLVQSGAEVKKPGESLKISCKGSGYSFTSQWIAWVRQMPGKGLEWMGIIYPGDSDTRYSPSFQGQVTISADKSISTAYLQWSSLKASDTAMYFCARQRTFYYDSSDYFDYWGQGTLVTVSS
VL: DIQMTQSPSSVSASVGDRVTITCRASQGISSWLAWYQQKPGKAPKLLIYAASSLQNGVPSRFSGSGSGTDFTLTISSLQPEDFATYFCQQADSFPRTFGQGTKLEIK
Take B2: the Binding Signal (fold over 6E7 parental antibody) in assay [1] turned out to be 0.55 fold; in assay [2], 0.54 fold.

B3: 6E7 antibody affinity modulation variant V45 (antibody, V domains shown)
VH: EVQLVQSGAEVKKPGESLKISCKGSGYSFTSYWIAWVRQMPGKGLEWMGIIYPGDSDTRYSPSFQGQVTISADKSISTAYLQWSSLKASDTAMYFCARQRTFYYDSSDYFDYWGQGTLVTVSS
VL: DIQMTQSPSSVSASVGDRVTITCRASQGISSFLAWYQQKPGKAPKLLIYAASSLQNGVPSRFSGSGSGTDFTLTISSLQPEDFATYFCQQADSFPRTFGQGTKLEIK
As for B3, the Binding Signal (fold over 6E7 parental antibody) in assay [1] is 0.43 fold; in assay [2], 0.53 fold.

B4: 6E7 antibody affinity modulation variant V44 (antibody, V domains shown)
VH: EVQLVQSGAEVKKPGESLKISCKGSGYSFTSYWIAWVRQMPGKGLEWMGIIYPSDSDTRYSPSFQGQVTISADKSISTAYLQWSSLKASDTAMYFCARQRTFYYDSSDYFDYWGQGTLVTVSS
VL: DIQMTQSPSSVSASVGDRVTITCRASQGISSWLAWYQQKPGKAPKLLIYAASSLQNGVPSRFSGSGSGTDFTLTISSLQPEDFATYFCQQADSFPRTFGQGTKLEIK
Turning to B4, the values for the Binding Signal (fold over 6E7 parental antibody) in assay [1] and in assay [2] were 0.65 fold and 0.52 fold, respectively.

B5: 6E7 antibody affinity modulation variant V35 (antibody, V domains shown)
VH: EVQLVQSGAEVKKPGESLKISCKGSGYSFTSYWIAWVRQMPGKGLEWMGIIYPGDSDTRYSPSFQGQVTISADKSISTAYLQWSSLKASDTAMYFCARQRTFYYDSSDYFDYWGQGTLVTVSS
VL: DIQMTQSPSSVSASVGDRVTITCRASQGISSWLAWYQQKPGKAPKLLIYAASSLQNGVPSRFSGSGSGTDFTLTISSLQPEDFATYFCQQAYSFPRTFGQGTKLEIK
On to B5, for which the Binding Signal (fold over 6E7 parental antibody) in assay [1] came to 0.21 fold; in assay [2], 0.29 fold.

B6: 6E7 antibody affinity modulation variant V55 (antibody, V domains shown)
VH: EVQLVQSGAEVKKPGESLKISCKGSGYSFTSYWIAWVRQMPGKGLEWMGIIYPGDSDTIYSPSHQGQVTISADKSISTAYLQWSSLKASDTAMYFCARQRTFYYDSSDYFDYWGQGTLVTVSS
VL: DIQMTQSPSSVSASVGDRVTITCRASQGISSWLAWYQQKPGKAPKLLIYAASSLQNGVPSRFSGSGSGTDFTLTISSLQPEDFATYFCQQADSFPRTFGQGTKLEIK
As to B6, the Binding Signal (fold over 6E7 parental antibody) in assay [1] stood at 0.24 fold; in assay [2], 0.66 fold.

B7: 6E7 antibody affinity modulation variant V57 (antibody, V domains shown)
VH: EVQLVQSGAEVKKPGESLKISCKGSGYSFTSYWIAWVRQMPGKGLEWMGIIYPGDSDTRYSPSFQGQVTISADKSISTAYLQWSSLKASDTAMYFCARQRTFYYDSSDYFDYWGQGTLVTVSS
VL: DIQMTQSPSSVSASVGDRVTITCAASQGISSWLAWYQQKPGKAPKLLIYAASSLQNGVPSRFSGSGSGTDFTLTISSLQPEDFATYFCQQADSFPRTFGQGTKLEIK
B7: the results for the Binding Signal (fold over 6E7 parental antibody) in assay [1] and in assay [2] were 0.84 fold and 0.85 fold, respectively.

B8: 6E7 antibody affinity modulation variant V56 (antibody, V domains shown)
VH: EVQLVQSGAEVKKPGESLKISCKGSGYSFTSYWIAWVRQMPGKGLEWMGIIYPGDSDTRYQPSFQGQVTISADKSISTAYLQWSSLKASDTAMYFCARQRTFYYDSSDYFDYWGQGTLVTVSS
VL: DIQMTQSPSSVSASVGDRVTITCRASQGISSWLAWYQQKPGKAPKLLIYAASSLQNGVPSRFSGSGSGTDFTLTISSLQPEDFATYFCQQADSFPRTFGQGTKLEIK
As for B8, the Binding Signal (fold over 6E7 parental antibody) in assay [1] was determined as 0.23 fold; in assay [2], 0.59 fold.

B9: 6E7 antibody affinity modulation variant V47 (antibody, V domains shown)
VH: EVQLVQSGAEVKKPGESLKISCKGSGYSFTSYWIAWVRQMPGKGLEWMGIIYPGDSDTRYSPSFQGQVTISADKSISTAYLQWSSLKASDTAMYFCARQRTFYYDSSDYFDYWGQGTLVTVSS
VL: DIQMTQSPSSVSASVGDRVTITCRASQGISSWLAWYQQKPGKAPKLLIYAASSLQNGVPSRFSGSGSGTDFTLTISSLQPEDFATYFCQQADSFPMTFGQGTKLEIK
In the case of B9, the Binding Signal (fold over 6E7 parental antibody) amounted to 0.42 fold in assay [1] and 0.47 fold in assay [2].

B10: 6E7 antibody affinity modulation variant V66 (antibody, V domains shown)
VH: EVQLVQSGAEVKKPGESLKISCKGSGTSFTSYWIAWVRQMPGKGLEWMGIIYPGDSDTRYSPSFQGQVTISADKSISTAYLQWSSLKASDTAMYFCARQRTFYYDSSDYFDYWGQGTLVTVSS
VL: DIQMTQSPSSVSASVGDRVTITCRASQGISSWLAWYQQKPGKAPKLLIYAASSLQNGVPSRFSGSGSGTDFTLTISSLQPEDFATYFCQQADSFPRTFGQGTKLEIK
With B10, the Binding Signal (fold over 6E7 parental antibody) in assay [1] is 0.25 fold; in assay [2], 0.74 fold.

B11: 6E7 antibody affinity modulation variant V67 (antibody, V domains shown)
VH: EVQLVQSGAEVKKPGESLKISCKGSGYSFTSYWIAWVRQMPGKGLEWMGMIYPGDSDTRYSPSFQGQVTISADKSISTAYLQWSSLKASDTAMYFCARQRTFYYDSSDYFDYWGQGTLVTVSS
VL: DIQMTQSPSSVSASVGDRVTITCRASQGISSWLAWYQQKPGKAPKLLIYAASSLQNGVPSRFSGSGSGTDFTLTISSLQPEDFATYFCQQADSFPRTFGQGTKLEIK
For B11, the Binding Signal (fold over 6E7 parental antibody) in assay [1] was found to be 0.8 fold; in assay [2] it was 0.84 fold.

B12: 6E7 antibody affinity modulation variant V59 (antibody, V domains shown)
VH: EVQLVQSGAEVKKPGESLKISCKGSGYSFTSYWIAWVRQMPGKGLEWMGIIYPGDSDTRYSPSFQGQVTISADKSISTAYLQWSSLKASDTAMYFCARQRTFYYDSSDYFDYWGQGTLVTVSS
VL: DIQMTQSPSSVSASVGDRVTITCRASQGISSWLAWYQQKPGKAPKLLIYAASSLQNGVPSRFSGSGSGTDFTLTISSLQPEDFATYFCMQADSFPRTFGQGTKLEIK
Turning to B12, the results for the Binding Signal (fold over 6E7 parental antibody) in assay [1] and in assay [2] were 0.19 fold and 0.6 fold, respectively.

B13: 6E7 antibody affinity modulation variant V46 (antibody, V domains shown)
VH: EVQLVQSGAEVKKPGESLKISCKGSGYSFTSYWIAWVRQMPGKGLEWMGIIYPGDSDTRYSPSFQGQVTISADKSISTAYLQWSSLKASDTAMYFCARQRTFYYDSSDYFDYWGQGTLVTVSS
VL: DIQMTQSPSSVSASVGDRVTITCRASQGISSWLAWYQQKPGKAPKLLIYAASTLQNGVPSRFSGSGSGTDFTLTISSLQPEDFATYFCQQADSFPRTFGQGTKLEIK
In the case of B13, the Binding Signal (fold over 6E7 parental antibody) in assay [1] stood at 0.83 fold; in assay [2], 0.96 fold.

B14: 6E7 antibody affinity modulation variant V58 (antibody, V domains shown)
VH: EVQLVQSGAEVKKPGESLKISCKGSGYSFTSYWIAWVRQMPGKGLEWMGIIYPGDSDTRYSPSFQGQVTISADKSISTAYLQWSSLKASDTAMYFCARQRTFYYDSSDYFDYWGQGTLVTVSS
VL: DIQMTQSPSSVSASVGDRVTITCRASQGISSWLAWYQQKPGKAPKLLIYKASSLQNGVPSRFSGSGSGTDFTLTISSLQPEDFATYFCQQADSFPRTFGQGTKLEIK
For B14, the Binding Signal (fold over 6E7 parental antibody) in assay [1] is 0.28 fold; in assay [2] it was 0.68 fold.

B15: 6E7 antibody affinity modulation variant V68 (antibody, V domains shown)
VH: EVQLVQSGAEVKKPGESLKISCKGSGYSFTSYWIAWVRQMPGKGLEWMGIIYPGDSDTRYSPSFQGQVTISADKSISTAYLQWSSLKASDTAMYFCARQRTFRYDSSDYFDYWGQGTLVTVSS
VL: DIQMTQSPSSVSASVGDRVTITCRASQGISSWLAWYQQKPGKAPKLLIYAASSLQNGVPSRFSGSGSGTDFTLTISSLQPEDFATYFCQQADSFPRTFGQGTKLEIK
With B15, the Binding Signal (fold over 6E7 parental antibody) in assay [1] turned out to be 0.44 fold; in assay [2], 0.43 fold.

B16: 6E7 antibody affinity modulation variant V69 (antibody, V domains shown)
VH: EVQLVQSGAEVKKPGESLKISCKGSGYSFTSYWIAWVRQMPGKGLEWMGIIYPGDSDTRYSPSFQGQVTISADKSISTAYLQWSSLKASDTAMYFCARQRTFYYDSSDYFDYWGQGTLVTVSS
VL: DIQMTQSPSSVSASVGDRVTITCRASQGISSYLAWYQQKPGKAPKLLIYAASSLQNGVPSRFSGSGSGTDFTLTISSLQPEDFATYFCQQADSFPRTFGQGTKLEIK
Turning to B16, the Binding Signal (fold over 6E7 parental antibody) was 0.41 fold in assay [1] and 0.4 fold in assay [2].

B17: 6E7 antibody affinity modulation variant V43 (antibody, V domains shown)
VH: EVQLVQSGAEVKKPGESLKISCKGSGYSFTSYWIAWVRQMPGKGLEWMGIIYPGDSGTRYSPSFQGQVTISADKSISTAYLQWSSLKASDTAMYFCARQRTFYYDSSDYFDYWGQGTLVTVSS
VL: DIQMTQSPSSVSASVGDRVTITCRASQGISSWLAWYQQKPGKAPKLLIYAASSLQNGVPSRFSGSGSGTDFTLTISSLQPEDFATYFCQQADSFPRTFGQGTKLEIK
In the case of B17, the Binding Signal (fold over 6E7 parental antibody) turned out to be 0.2 fold in assay [1] and 0.33 fold in assay [2].

B18: 6E7 antibody affinity modulation variant V42 (antibody, V domains shown)
VH: EVQLVQSGAEVKKPGESLKISCKGSGYSFTSAWIAWVRQMPGKGLEWMGIIYPGDSDTRYSPSFQGQVTISADKSISTAYLQWSSLKASDTAMYFCARQRTFYYDSSDYFDYWGQGTLVTVSS
VL: DIQMTQSPSSVSASVGDRVTITCRASQGISSWLAWYQQKPGKAPKLLIYAASSLQNGVPSRFSGSGSGTDFTLTISSLQPEDFATYFCQQADSFPRTFGQGTKLEIK
As for B18, the Binding Signal (fold over 6E7 parental antibody) in assay [1] came out at 0.45 fold; in assay [2] it was 0.41 fold.
